Reference: patent publication US20150098945A1 (Daiichi Sankyo, published 2015)

Target: T1, full-length human ROBO4 (pCI-hROBO4-transfected HEK293/HEK293T cells) (human, UniProt Q8WZ75 28-1007)
T1 sequence: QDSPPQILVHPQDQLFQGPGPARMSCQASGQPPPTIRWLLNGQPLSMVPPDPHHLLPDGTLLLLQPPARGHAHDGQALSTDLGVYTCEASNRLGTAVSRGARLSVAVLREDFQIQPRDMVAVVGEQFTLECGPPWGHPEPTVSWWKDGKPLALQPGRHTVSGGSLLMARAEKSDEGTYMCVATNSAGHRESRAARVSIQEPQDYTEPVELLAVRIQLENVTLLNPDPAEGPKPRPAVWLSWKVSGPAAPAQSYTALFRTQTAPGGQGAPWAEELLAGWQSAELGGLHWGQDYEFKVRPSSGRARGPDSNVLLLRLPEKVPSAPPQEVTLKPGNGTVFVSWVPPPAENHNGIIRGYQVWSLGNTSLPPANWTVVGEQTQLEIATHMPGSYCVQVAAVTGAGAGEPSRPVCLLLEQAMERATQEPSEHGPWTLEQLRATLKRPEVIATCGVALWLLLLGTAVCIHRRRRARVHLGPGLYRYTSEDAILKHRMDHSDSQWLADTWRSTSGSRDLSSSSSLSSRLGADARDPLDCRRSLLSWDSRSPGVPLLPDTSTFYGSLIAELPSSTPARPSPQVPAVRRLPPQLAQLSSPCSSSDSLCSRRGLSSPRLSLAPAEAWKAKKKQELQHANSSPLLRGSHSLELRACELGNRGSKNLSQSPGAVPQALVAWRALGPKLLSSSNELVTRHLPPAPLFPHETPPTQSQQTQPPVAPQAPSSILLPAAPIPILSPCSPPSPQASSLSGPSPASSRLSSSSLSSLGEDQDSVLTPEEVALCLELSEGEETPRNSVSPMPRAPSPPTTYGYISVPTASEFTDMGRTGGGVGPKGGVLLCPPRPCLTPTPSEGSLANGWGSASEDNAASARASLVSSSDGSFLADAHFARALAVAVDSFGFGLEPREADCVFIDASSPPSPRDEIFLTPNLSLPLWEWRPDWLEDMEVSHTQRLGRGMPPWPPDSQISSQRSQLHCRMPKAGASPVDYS
Assay: flow cytometry, HEK293 cells transfected with pCI-hROBO4, antibody at 10 µg/mL, anti-mouse IgG FITC; control histogram IgG (Mouse IgG2a)
Protocol: HEK293 cells were inoculated at a concentration of 1.5×10⁶ cells/dish to a 60-mm dish (manufactured by Corning Inc.) and cultured overnight in a DMEM medium containing 10% FBS at 37° C. under 5% CO₂ conditions. On the next day, the HEK293 cells were transfected with pCI-hROBO4, pCI-mROBO4, pCI-raROBO4, pCI-FLAG-cynoROBO4-1, pCI-FLAG-cynoROBO4-2, pCI-hROBO1, pCI-hROBO2, or pCI-hROBO3 using FuGENE6 Transfection Reagent and further cultured overnight at 37° C. under 5% CO₂ conditions. On the next day, the expression vector-transfected cells were treated with TrypLE Express (manufactured by Life Technologies Corp.), washed with PBS containing 5% FBS, and then suspended in PBS containing 5% FBS. The obtained cell suspension was used in flow cytometry analysis.
Each cell suspension prepared in 4)-3-1 was centrifuged, and the supernatant was removed. Then, MAb1 or a negative control Mouse IgG2a was added at a concentration of 10 μg/mL to 2×10⁵ expression vector-transfected cells, and the resulting suspension was left standing at 4° C. for 1 hour. […] Data was analyzed using Flowjo. The histogram of FITC fluorescence intensity was prepared. The antibody was determined to bind in a cross-species manner when the histogram of MAb1 was shifted to a stronger fluorescence intensity region compared with the histogram of the negative control Mouse IgG2a.

- binding result: binds
B1: anti-ROBO4 mouse monoclonal antibody MAb1 (antibody, mouse IgG1, V domains shown)
VH: EVQLVESGGGLVKPGGSLKLSCAASGFTFSTYAMSWVRQTPEKRLEWVATISNGGTYTYYPDSVKGRFTISRDNAENTLYLQMSSLRSEDTAMYFCARLIYYDYLDYWGHGTTLTVSS
VL: DAVMTQTPLSLPVSLGDQASISCRSSQSLENSNGNTYLNWYFQKPGQSPQLLIYRVSNRFSGVLDRFSGSGSGTDFTLKISRVEAEDFGVYFCLQVTHVPWTFGGGTKLEIKR
notes: Mouse IgG1 (gamma1), kappa light chain, purified from hybridoma supernatant; also called parent antibody MAb1
